From ChEMBL document CHEMBL1139472, “Synthesis of N-{4-[(2,4-diamino-5-methyl-4,7-dihydro-3H-pyrrolo[2,3-d]pyrimidin-6-yl)thio]benzoyl}-L-glutamic acid and N-{4-[(2-amino-4-oxo-5-methyl-4,7-dihydro-3H-pyrrolo[2,3-d]pyrimidin-6-yl)thio]benzoyl}-L-glutamic acid as dual inhibitors of dihydrofolate reductase and thymidylate synthase and …” (J Med Chem, 2005) come the findings set out here.

Substrate in series [1]: Cc1c(Sc2ccc(C(=O)N[C@@H](CCC(=O)O)C(=O)O)cc2)[nH]c2nc(N)[nH]c(=O)c12
The series can be described thus: Activity of human recombinant cytosolic FPGS.

Substrate in series [2]: Cc1c(Sc2ccc(C(=O)N[C@@H](CCC(=O)O)C(=O)O)cc2)[nH]c2nc(N)[nH]c(=O)c12
The series can be described thus: (§1) Activity of human recombinant cytosolic FPGS relative to aminopterin.

Substrate in series [3]: Nc1nc(N)c2nc(CNc3ccc(C(=O)N[C@@H](CCC(=O)O)C(=O)O)cc3)cnc2n1
Described as §1.

B1: Folylpolyglutamate synthase, mitochondrial (Homo sapiens), Q05932 (protein)
chain: MSRARSHLRAALFLAAASARGITTQVAARRGLSAWPVPQEPSMEYQDAVRMLNTLQTNAGYLEQVKRQRGDPQTQLEAMELYLARSGLQVEDLDRLNIIHVTGTKGKGSTCAFTECILRSYGLKTGFFSSPHLVQVRERIRINGQPISPELFTKYFWRLYHRLEETKDGSCVSMPPYFRFLTLMAFHVFLQEKVDLAVVEVGIGGAYDCTNIIRKPVVCGVSSLGIDHTSLLGDTVEKIAWQKGGIFKQGVPAFTVLQPEGPLAVLRDRAQQISCPLYLCPMLEALEEGGPPLTLGLEGEHQRSNAALALQLAHCWLQRQDRHGAGEPKASRPGLLWQLPLAPVFQPTSHMRLGLRNTEWPGRTQVLRRGPLTWYLDGAHTASSAQACVRWFRQALQGRERPSGGPEVRVLLFNATGDRDPAALLKLLQPCQFDYAVFCPNLTEVSSTGNADQQNFTVTLDQVLLRCLEHQQHWNHLDEEQASPDLWSAPSPEPGGSASLLLAPHPPHTCSASSLVFSCISHALQWISQGRDPIFQPPSPPKGLLTHPVAHSGASILREAAAIHVLVTGSLHLVGGVLKLLEPALSQ
Consider B1, for which, in series [1], the Km was determined as 5.1 µM. Also, the Vmax is 0.29 in series [2] and 1 in series [3].

For orientation: Km means the substrate concentration at which the rate is half of its maximum.
